We go through two sequences from publication PMC13231165.

In series [1] the target is PCV2 Rep WT (catalytically inactive) (Porcine circovirus 2 (PCV2)) (UniProt Q8BB16). Nature of the series: fluorescence polarization. The settings on record: 50 mM NaCl, 50 mM HEPES pH 8.0, 0.05% Tween-20, 1 mM DTT, 5 uM MnCl2 (SI legend: 50 uM Mn2+) or EDTA; 10 nM FAM substrate, protein from 1 uM in 1:2 dilutions …. On the technique in general: Fluorescence polarisation rises when a labelled molecule tumbles more slowly, as on binding a larger partner.
UniProt Q8BB16, sequence (Q8BB16 whole entry): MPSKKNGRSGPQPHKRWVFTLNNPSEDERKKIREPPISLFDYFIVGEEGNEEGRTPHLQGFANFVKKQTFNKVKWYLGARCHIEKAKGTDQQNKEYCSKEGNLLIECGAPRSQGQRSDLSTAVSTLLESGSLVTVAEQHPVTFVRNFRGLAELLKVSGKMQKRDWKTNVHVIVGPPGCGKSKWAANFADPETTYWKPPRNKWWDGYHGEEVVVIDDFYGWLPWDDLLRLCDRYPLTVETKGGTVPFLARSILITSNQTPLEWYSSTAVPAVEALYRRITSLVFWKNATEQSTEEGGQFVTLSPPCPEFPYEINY

Series [2] shares this target. Kind of series: fluorescence polarization. The conditions noted are these: 50 mM NaCl, 50 mM HEPES pH 8.0, 0.05% Tween-20, 1 mM DTT, 5 uM MnCl2 (SI legend: 50 uM Mn2+) or EDTA; 10 nM FAM substrate, protein from 1 uM in 1:2 dilutions …. This is another data set of the same source.

In the case of CGTAAATATTACCGTC [HUHDNA_FAM], the Kd (commonly the constant that tells how readily two partners part at equilibrium) in series [1] was determined as 30 nM; in series [2], 6 nM.

On to CGUAAAAUAUUACCGUC [HUHRNA_FAM], for which the Kd in series [1] was 100 nM; in series [2], 90 nM.
